From patent publication US20240239894A1, “THERAPEUTIC BINDING MOLECULES” (MedImmune Limited, priority 2020, published 2024)

Assays:
[1] = target: human B7-H4 on cells (human) (UniProt Q7Z7D3); assay: flow cytometry, AF647-labelled antibody at 156 ng/ml, HT29 cells expressing hB7-H4
[2] = target: T1, Human B7-H4-Fc (Human B7H4 ECD, Fc_6His) (human); assay: ELISA on coated human B7H4/Fc, absorbance 450 nm, [IgG] 0.006 to 100 nM
T1 sequence (Q7Z7D3 whole entry, looked up): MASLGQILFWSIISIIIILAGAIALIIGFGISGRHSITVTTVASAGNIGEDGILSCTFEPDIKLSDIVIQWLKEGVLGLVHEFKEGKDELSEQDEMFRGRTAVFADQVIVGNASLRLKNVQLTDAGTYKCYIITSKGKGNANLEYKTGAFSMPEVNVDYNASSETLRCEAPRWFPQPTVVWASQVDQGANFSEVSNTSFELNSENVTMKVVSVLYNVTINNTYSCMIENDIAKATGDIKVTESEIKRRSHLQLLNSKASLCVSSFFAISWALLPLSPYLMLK

- Geometric Mean : Comp-APC-A [1]: 1200
- EC50 (read off the curve) [2]: 5 nM
B1: 1D11 (Genentech anti-B7-H4 mAb) (antibody, from another filing, V domains shown)
VH: QVQLQQSGAELVRPGTSVKMSCKASGYTFTSYWIGWAKQRPGHGFEWIGDIYPGGGYTNYNEKFKGKATLTADKSSSTAYMQFSSLTSEDSAIYYCARLDGSSYRGAMDSWGQGTSITVSS
VL: DIQMTQSPSSLSASLGGKVTITCKASQGFNKYVAWYQHKPGQCPRLLIHYTSTLQPGIPARFSGSGSGRDYSFSISNLEPEDSATYFCLQYGNLLYAFGGGTKLEIKR
